The record followed here is patent publication US20190144558A1.

The target in the test is purified human CD117 ectodomain (R&D Systems #332-SR) (human) (UniProt P10721). Description: BLI (Octet Red96), IgG on anti-human Fc sensors, human CD117 ectodomain at 33.3 and 11 nM, 1:1 fit.

B1: Antibody 61 (antibody, human IgG1, kappa, V domains shown)
VH: EVQLLESGGGLVQPGGSLRLSCAASGFTFSSYVMIWVRQAPGKGLEWVSSISGDSVTTYYADSVKGRFTISRDNSKNTLYLQMNSLRAEDTAVYYCAKGPPTYHTNYYYMDVWGKGTTVTVSS
VL: DIQMTQSPSSVSASVGDRVTITCRASQGISSWLAWYQQKPGKAPKLLIYAASSLQSGVPSRFSGSGSGTDFTLTISSLQPEDFATYYCQQTNSFPYTFGGGTKVEIKR
In turn, B1 came in with a Kd of 24.9 nM, a koff of 0.00533 s⁻¹ and a kon of 214000 M⁻¹ s⁻¹.
